Assay [1] concerns the target Human plasma fibronectin (human) (UniProt P02751). As to the kind of experiment: soluble 125I-Fn bound to untreated whole C. jejuni, gamma counting.
For the next assay, the target named is Human plasma fibronectin (human, UniProt P02751-8, 125I-labelled (Iodogen method) or biotinylated (sulfo-NHS-biotin) in the ligand blots and the soluble binding assay; unlabelled when immobilised on coverslips). Briefly: ligand blot with 125I-labeled Fn.

Results on two molecules are retold here after patent publication US6156546 (Washington State University Research Foundation, dated 2000).

As to “C. jejuni whole bacteria (isolate not stated) in the soluble 125I-Fn assay (cells without a defined receptor)”, the ng Fn bound in assay [1] came out at 380 ng.

B1: CadF protein of Campylobacter coli M275 (other)
chain: ADNNVKFEITPTLNHNYFEGNLDMDNRYAPGIRLGYHFDDFWLDQLELGLEHYSDVKYTNSTLTTDITRTYLSAIKGIDLGEKFYFYGLAGGGYEDFSKGAFDNKSGGFGHYGAGLKFRLSDSLALRLETRDQISFHDADHSWVSTLGISFGFGAKREKVVAEQVKEVAIEPRVAVPTQSQCPAEPREGAMLDENGCEKTISFEGHFGFDKVDINPAFEEKIKEIAQLLDENARYDTILEGHTDNIGSRAYNQKLSERRAESVAKELEKFGVDKDRIQTVGYGQDKPRSRNETKEGRADNRRVDAKFILR
As for B1, the binding result in the assay with Human plasma fibronectin was “binds”.
